# Experiment: soluble on expression in E. coli; label from the status in PepcDB or PDB records
row,Sequence,soluble on expression in E. coli
1,MNNSAFTFQTLHPDTIMDALFEHGIRVDSGLTPLNSYENRVYQFQDEDRRRFVVKFYRPERWTADQILEEHQFALQLVNDEVPVAAPVAFNGQTLLNHQGFYFAVFPSVGGRQFEADNIDQMEAVGRYLGRMHQTGRKQLFIHRPTIGLNEYLIEPRKLFEDATLIPSGLKAAFLKATDELIAAVTAHWREDFTVLRLHGDCHAGNILWRDGPMFVDLDDARNGPAVQDLWMLLNGDKAEQRMQLETIIEAYEEFSEFDTAEIGLIEPLRAMRLVYYLAWLMRRWADPAFPKNFPWLTGEDYWLRQTATFIEQAKVLQEPPLQLTPMY,soluble
2,MNPDEPNFIWKDLNAVRDMGCIIENELSEVLPNKRYETYSIIGRSGEFNETFNDYEPFDYEIEDVTIPYENLAAVKRWLTGKSKLITHNDEDKYLDAICTMSKPTSFKNEWGVFYTFNVEFRCQPFKRKVNEQPKVIKTKSIEITDHGDEIAFPYIEINSKGGDITLNIGSNSLTILRTQSGIVTIDTEKGKAIQEGNPLFTRGSWIKTNPGQNKLNISGNFIEAKFWNRSAYL,not soluble
3,MNPESRVIRKVLALQNDEKIFSGERRVLIAFSGGVDSVVLTDVLLKLKNYFSLKEVALAHFNHMLRESAERDEEFCKEFAKERNMKIFVGKEDVRAFAKENRMSLEEAGRFLRYKFLKEILESEGFDCIATAHHLNDLLETSLLFFTRGTGLDGLIGFLPKEEVIRRPLYYVKRSEIEEYAKFKGLRWVEDETNYEVSIPRNRIRHRVIPELKRINENLEDTFLKMVKVLRAEREFLEEEAQKLYKEVKKGNCLDVKKLKEKPLALQRRVIRKFIGEKDYEKVELVRSLLEKGGEVNLGKGKVLKRKERWLCFSPEV,soluble
4,MNPFQKIKSAVNKRQRFFINRTLQRKLTNQGMTVISANCVGAFILHDLHQPFNSPFVNLYLSPQDFLRYLQNIDFYLTQPLTFVQTEKSYPVGKLADLEIHFMHYHSEQEANEKWQLRTSRMKLDNLFIMMTDRDGVTEKDIQLFDQLPFKNKVIFTHKPYPAFKSAYYIKGFEKQNQVGDIFEFSGWNGKKYYDQFDYVKWFNHA,not soluble
5,MNPIIDGIIALEGGYVFNPKDKGGATHWGITEATARAHGYAGDMRDLTHAEAYAILEEDYWIKPGFDVISTLSWPVSFELCDAAVNIGAYHPSAWLQRWLNVFNHEGKRYPDIHVDGNIGPRTLAALEHYLAWRGQEGEAVLVKALNCSQGTYYLNVAEKNHNNEQFIYGWIKNRVT,soluble
6,MNPKFPDSPFLNDLLARLGEVLRQSPAQDFERNLKAGVTSMLTKLDLVSREEFDVQAAVLARTREKLGQLEARLADLEKHERQADEG,not soluble
7,MNQEKLDLRKSAADDTHSGAAFAFQALTPDLILDAIESLGVYPETGLLALNSYENRVYQFRSDEGQRYVVKFYRPDRWSDAQIQEEHDFALALAEQEIPMAVPTAVQGHTLHHFQGFRFALFPSIGGRAFEVDNLEQLEFVGRFIGRMHQYGAQSVFQAREPLNPQILGDEPLAWLKQSELVPTSLRVAFFTVVEQVLAKVNTLWAQQRFKPIRLHGDLHPGNILWTPDGPGFVDLDDARMGPAIQDLWMMLTGDRAQQQLQLEVLLEAYEEFCEFDTRQLALIEPLRALRMVHYNAWIGRRWQDPAFPMHFPWFGDEKYWEQQILAFKEQLAALDEPPLSLIPY,not soluble
8,MNQGERNAVSLLKDKLFNEEGKPVNLIFCYTILQMKVAERIMAQHPGERFYVVLMSENRNEKYDYYFNQIKDKAERAYFFYLPYGLNKSFNFIPTMAELKVKSMLLPKVKRIYLASLEKVSIAAFLSTYPDAEIKTFDDGTNNLIRESSYLGGEFAVNGAIKRNFARMMVGDWSIAKTRNASDEHYTIFKGLKNIMDDGRRKMTYLPLFDASELKAGDETGGTVRILLGSPDKEMKEISEKAAKNFNIQYVAPHPRQTYGLSGVTALNSPYVIEDYILREIKKNPHTRYEIYTFFSGAALTMKDFPNVHVYALKPASLPEDYWLKPVYALFRQADIPILAFDDKLEHHHHHH,not soluble
9,MNQIWLKVCAASDMQPGTIRRVNRVGAAPLAVYRVGDQFYATEDTCTHGIASLSEGTLDGDVIECPFHGGAFNVCTGMPASSPCTVPLGVFEVEVKEGEVYVAGEKKLEHHHHHH,soluble
10,MNQKDTRKETLEFNKLQKRLRRNVGNAITDYNMIEEGDVVMACISGGKDSFAMLDILLNLQKAAPIKFEVVAVNLDQKQPGFPEHILPEYFETLNIPYYIVDKDTYSVVKEKVPEGKTTCGLCSRLRRGTLYSFAEKIGATKLALGHHMDDIVETMFLNMFHGSRLKAMPPKLRSDDGRNVVIRPLTYCREKDLIKYAEHKDFPIIPCNL,not soluble
11,MNQTAAFSEVEMSIVVPKESDIKDVSQLTSVQAPTKVDKNNIEILMSALKKDKKVDVKVDDVASYQEAYDNLKSGKSKAMVLSGSYASLLESVDSNFASNLKTIYTYKIKKKNSNSANPVDSKVFNIYISGIDTYGPISTVSRSDVNIIMTVNMNTHKILLTTTPRDAYVKIPGGGADQYDKLTHAGIYGVETSEQTLEDLYGIKIDYYARINFTSFLKLIDQLGGVTVHNDQAFTQGKFDFPVGDIQMNSEQALGFVRERYNLDGGDNDRGKNQEKVISAILNKLASLKSVSNFTSIVNNLQDSVQTNMSLDTINALANTQLDSGSKFTVTSQAVTGTGSTGQLISYAMPNSSLYMMKLDNSSVASASQAIKNLMEEKLEHHHHHH,soluble
12,MNQVEMTEFPVGKPQEALYGVASTPDGALWFTLAKGNAIGRLSPDGAVSRFPLPHADGQPTTITCGPDGRPWFTLSSANAIGRLAPDGALRMFELPRPASRPFGIAGGHDGCLWFAEMAGDRIGRITIDGDIEEYDLPVKGGYPSCMAAGRDGLMWFTLNQAGAVGSISATAAPRIFPLGAADAAPVGIASDAQGALWIAQAGNGAIARFDAGGRITEFPLHSRAARPHAIAADAAGNLWFTEWGANRIGRISEAGDLAGYELAAPGSEPHGIAIDPHGCVWAALETGRLVRLQASPRDLEHHHHHH,not soluble
13,MNRARDWMRQAERDLEHAQKSLELGHWEWACFAAHQAAEKALKAVYFALGAEAFGHALTHLLAGLHERLNLTPELRRCALVLDRLYIPTRYPDSWEAGAPLDYYGEEEARDALLCAGEILRFGQSVLAGPGETSSGP,soluble
14,MNRFIMANSQQCLGCHACEVACVMAHNDERHVLTSQRYQPRITVIKHQHQRSAVTCHHCEDAPCARSCPNGAIAHINDSVQVNAQKCIGCKSCVVACPFGTMQMVLTPVAPNQFKASAHKCDLCQGREQGPACVENCPADALQLVTEDSLTRLAKTRRLRTARQEIRPWHTVDTQHSGAASSKAERMQATPPRGEPDKLAIEARKTTFEEIYLPFRAAQAEREASRCLTCGEHSICEWTCPLHNHIPQWIELVKAGDIDAAVELSHQTNCLPEITGRVCPQDRLCEGACTLRDEYGAVTIGNIERYISDRALSKGWRPDLSDVQKSDKRVAIIGAGPAGLACADVLARHGVSATVYDRHPEIGGLLTFGIPAFKLDKSLLARRREIFSAMGIRFELNCEVGKDISLETLLESYDAVFVGVGTYRSMKADLPNEDAPGVYDALPFLIANTKQVMGLPALPDEPFIDTAGLNVVVLGGGDTAMDCVRTALRHGAANVTCAYRRDEANMPGSKKEVKNAREEGANFEFNVQPVELVLDTHGRASGIRFLRTRLGEPDGQGRRRPVPVPDSEFVMPADAVIMAFGFHPHGMSWLESHGVKVDNWGRIAASVESEFRYQTSNPKIFAGGDAVRGADLVVTAMAEGRHAAQGILDWLAK,not soluble
15,MNRHSAGQSTPVRVATLDQLKPGVPTAFDVDGDEVMVVRDGDSVYAISNLCSHAEAYLDMGVFHAESLEIECPLHVGRFDVRTGAPTALPCVLPVRAYDVVVDGTEILVAPKEADHHHHHH,soluble
16,MNRKGYKSGFVSIIGRPNVGKSTFLNRIIGQKIAIMSDKPQTTRNKIQGVYTENDSQVIFIDTPGIHKPKHKLGDFMVKMAQTTLKEVDIVLFMVNAVEGFGRGEEFIIEKLKETKQPVFLVINKIDQVHPEQLLELIDQYRKLHDFAEIVPISALDGNNAEALIGTIKKYLPEGPQYYPDNQVTDHPERFIIAELIREKVLHLTREEVPHSVAVVIDAIQKREGGAVYINATIVVERPSQKGIIIGKQGKMLKEVGKRARFDIEALLGSKVFLEVWVKVQKDWRNKMSQLRDLGFREDEY,not soluble
17,MNRMMALVMAGGRGTRLAIDCEKPLLEVAGRPMIDHVLEALESATGVDGIIVVTSPHTPMTEDHVRGRHPIFRASGGGYVEDLREVLSHLEESYHEPLLVINSDLPLVRPSTIDWIISSYHSCPEPAMCVAVPDDLCRRHGLDFSGSLDGLVPCGVNILMSKNRVQEQRILEASMLELAVNINSCRDLKVLEKILGEIDGREEAHKRGREVLELEHHHHHH,soluble
18,MNRNRLPALTPGLAWSRPMNGAVDHKGYEQPTYDLEFAETATEIRRYGPYLVAEVTMAGDRSTAITRGFRVLARYIFGGNAESRRIEMTVPVSQLPAGEDLWTVRFTMPAVRSASLLPAPKDSRIRFVTVPPSRQAVRRFSGWPTDHALRRQAEGLAHWIAERGLPKREGPYFYFYDSPMTLPWQRRNEVAFGLGEGAAALEHHHHHH,not soluble
19,MNRSLANVILGGYGTTSTAGGKPMEISGTHTEINLDNAIDMIREANSIIITPGYGLCAAKAQYPIADLVKMLTEQGKKVRFGIHPVAGRMPGQLNVLLAEAGVPYDIVLEMDEINHDFPDTDLVLVIGANDTVNSAAQEDPNSIIAGMPVLEVWKSKQVIVMKRSLGVGYAAVDNPIFYKPNTAMLLGDAKKTCDALQAKVRESYQK,soluble
20,MNRTIDRSVPKLGVRSTRQRTAVVGVLKDLDYFASAKVIHQELTKRDLKVGLTTVYRTLQSLSEIEAVDVLHMSNGETLYRHCLSDEHHHHLVCTECGRTVEIDGGPVEKWAKEVAQLHGFQVTGHDAEIYGLCESCSAATE,not soluble
21,MNRYDRAITIFSPDGHLFQVEYAQEAVKKGSTAVGVRGKDCIVIGVEKKSIPALQDDRTIRKIHMIDDHVMLAFAGLSADARVLVDRARIECQSYKLTLEDPVTVAYISRYIANTKQRFTQSPGRRPFGISMLIGGFDHDGTPRLFKTEPSGAYYEYVANATGRGEKPVREYLEEQYSEENTVDEATTLKLVVKSLAQVVPPGSQNIEIAVMKKVNDELQQRVLSTEEIEALLKVVETERVAAEAEEAASKKK,not soluble
22,MNSCNRLPCAHEVLAVFAHPDDESFGLGAVLGDFTAQGTRLRGLCFTHGEASTLGRTDRNLGEVRREELAAAAQVLGVDHVQLLAYPDNGLAQIPLNELTQRVVDALAGADLLLVFDDNGVTGHPDHRRATEAALAAASTPSIPVLAWALPQPIADRLNAEFSASFGGRGHGHLDIMIEVDRSRQLAAIGCHFTQSADNPVLWRRLELLGDREYLRWLRRSVP,soluble

# — the DeepSol protein solubility set
